# According to patent US20200390902A1, “Antibody-Drug Conjugates Targeted at Human Aspartyl-(Asparaginyl)-B-Hydroxylase (HAAH)” (Panacea Pharmaceuticals, Inc., priority 2017, published 2020):
# T1: HAAH catalytic domain (human, UniProt Q12797)
# T1 sequence: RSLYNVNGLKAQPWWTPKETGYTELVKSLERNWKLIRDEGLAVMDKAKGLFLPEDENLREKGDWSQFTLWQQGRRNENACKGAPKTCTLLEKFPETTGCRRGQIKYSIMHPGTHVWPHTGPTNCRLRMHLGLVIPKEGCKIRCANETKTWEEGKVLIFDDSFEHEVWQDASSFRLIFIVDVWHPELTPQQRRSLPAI
# T2: Human aspartyl (asparaginyl) β-hydroxylase (HAAH) (human, UniProt Q12797)
# T2 sequence: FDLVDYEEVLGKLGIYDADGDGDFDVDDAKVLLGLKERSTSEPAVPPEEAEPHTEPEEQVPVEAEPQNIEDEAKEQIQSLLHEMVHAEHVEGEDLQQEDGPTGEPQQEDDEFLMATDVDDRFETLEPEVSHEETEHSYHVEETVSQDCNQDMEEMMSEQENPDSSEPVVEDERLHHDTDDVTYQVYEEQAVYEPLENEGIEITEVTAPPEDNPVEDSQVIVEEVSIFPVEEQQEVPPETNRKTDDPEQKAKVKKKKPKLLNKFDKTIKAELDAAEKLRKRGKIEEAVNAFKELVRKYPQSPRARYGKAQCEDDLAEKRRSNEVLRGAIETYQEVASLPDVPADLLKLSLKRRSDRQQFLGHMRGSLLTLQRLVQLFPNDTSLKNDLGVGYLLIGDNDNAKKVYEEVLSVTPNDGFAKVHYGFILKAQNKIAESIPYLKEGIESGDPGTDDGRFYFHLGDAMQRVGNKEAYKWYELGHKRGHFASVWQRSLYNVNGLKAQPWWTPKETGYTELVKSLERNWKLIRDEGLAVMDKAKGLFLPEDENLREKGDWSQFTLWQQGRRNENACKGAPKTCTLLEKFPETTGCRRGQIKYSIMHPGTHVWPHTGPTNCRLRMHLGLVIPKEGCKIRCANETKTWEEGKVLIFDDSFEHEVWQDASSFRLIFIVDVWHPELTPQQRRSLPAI
# Key:
# H460 lysate = assay: ELISA on plates coated with H460 lysate, percent of loading amount bound
# HAAH catalytic domain [1] = molecular target: T1, HAAH catalytic domain; assay: ELISA on plates coated with HAAH catalytic domain
# Description: The catalytic domain of HAAH (HAAH-cat) is exposed at the surface of HAAH-expressing cancer cells. The binding of SNS622-MC-DM1 at different drug-antibody ratio (DAR) and pH to HAAH-cat was measured using IgG1λ as control. The plates were coated with HAAH by treating with […] HAAH catalytic domain overnight. Following blocking with 1% Non-Fat Dry Milk in PBS for one hour, the plates were incubated for 45 minutes at 37° C. with 11.1 mg/ml IgG1λ; 9.6 mg/ml SNS622; 4.8 mg/ml SNS622-MC-DM1 at DAR 2.5, pH 7.0; 5.9 mg/ml SNS622-MC-DM1 at DAR 2.5, pH8.0; 6.1 mg/ml SNS622-DM1 at DAR 5.0, pH 7.0; 5.7 mg/ml SNS622-MC-DM1 at DAR 5.0, pH8.0; 4.1 mg/ml SNS622-DM1 at DAR 10.0, pH7.0; or 4.4 mg/ml SNS622-MC-DM1 at DAR 10.0, pH8.0. Following 5 PBS rinses the plates were incubated with 1:100 goat anti-human IgG (8)-HRP for 30 minutes at 37° C., Following five PBS rinses TMB substrate was added, and after a 15-minute incubation at room temperature, Stop solution was added to terminate the reactions. The plates were read at 450 nm using a 96-well plate reader (ELx808, BioTek). The binding results are shown below in Table VI
# HAAH catalytic domain [2] = molecular target: T1, HAAH catalytic domain; assay: ELISA on plates coated with HAAH catalytic domain; [Protein] 11.1 mg/ml
# [3] = molecular target: Human aspartyl (asparaginyl) β-hydroxylase (HAAH) (human) (UniProt Q12797)
# [4] = molecular target: T2, Human aspartyl (asparaginyl) …; assay: immunoassay on fixed H460 cells; printed as 'binding affinities'
# [5] = molecular target: Human aspartyl (asparaginyl) β-hydroxylase (HAAH) (human) (UniProt Q12797); remark: listed apart in the source
# [6] = molecular target: Human aspartyl (asparaginyl) β-hydroxylase (HAAH) (human) (UniProt Q12797); remark: listed apart in the source
# [7] = molecular target: Human aspartyl (asparaginyl) β-hydroxylase (HAAH) (human) (UniProt Q12797); remark: listed apart in the source
# [8] = molecular target: T2, Human aspartyl (asparaginyl) …; assay: cell-based or functional assay
molecule,measurement,setting,value
IgG1λ-MC-DM1 (non-specific ADC) (antibody),Percent binding,H460 lysate,< 0.002%
IgG1λ (non-specific monoclonal antibody),Percent binding,H460 lysate,< 0.002%
same,% Binding,HAAH catalytic domain [1],0.01%
same,[Average]*,HAAH catalytic domain [2],< 0.001 mg/mL
"SNS622-MC-DM1 (antibody, V domains shown, MC-DM1 (maleimidocaproyl-mertansine) on cysteine thiols of reduced disulfide bonds, positions not given; MC-DM1 (maleimidocaproyl-mertansine) on cysteine thiols of reduced disulfide bonds, positions not given) VH: QVQLQQSGPGLVKPSQTLSLTCAISGDSVSSNSAAWNWIRQSPSRGLEWLGRTYYRSKWYNDYAVSVKSRITINPDTSKNQFSLQLNSVTPEDTAVYYCARTGYSSSWVVNFDYWGQGTLVTVSS VL: QPVLTQSPSASGTPGQRVTISCSGSSSNIGSNYVYWYQQLPGTAPKLLIYKNNQRPSGVPDRFSGSKSGTAASLAISGLQSEDEADYYCAAWDDSLRGYVFGTGTKLTVLG","MTS assay, MIA-PaCa-2 ASPH cells, 10, 20 or 50 nM, 48 h (% reduction of relative absorbance)",[3],16
same,Percent binding,H460 lysate,107%
same,Kd,[4],~0.1 nM
same,"LDH release, H460 cells, 32 nM, 72 h (× (over untreated H460 cells))",[5],39
same,"IC50 of MTS, H460 cells, 72 h",[6],64 nM
same,"LC50 of LDH, H460 cells, 72 h",[6],36 nM
same,"EC50, H460 cell viability, MTS assay, 24 h",[7],15 nM
"SNS622-MC-MMAE (antibody, V domains shown, MC-MMAE on cysteine thiols of reduced disulfide bonds, positions not given; reaction DAR 10:1 gives final DAR 5.72 (also made at 2.5:1 and 5:1); MC-MMAE on cysteine thiols of reduced disulfide bonds, positions not given) VH: QVQLQQSGPGLVKPSQTLSLTCAISGDSVSSNSAAWNWIRQSPSRGLEWLGRTYYRSKWYNDYAVSVKSRITINPDTSKNQFSLQLNSVTPEDTAVYYCARTGYSSSWVVNFDYWGQGTLVTVSS VL: QPVLTQSPSASGTPGQRVTISCSGSSSNIGSNYVYWYQQLPGTAPKLLIYKNNQRPSGVPDRFSGSKSGTAASLAISGLQSEDEADYYCAAWDDSLRGYVFGTGTKLTVLG","IC50 of MTS, H460 cells, 72 h",[8],48 nM
"SNS622-DM1B2 (antibody, V domains shown, MC-DM1 on cysteine thiols of reduced disulfide bonds, positions not given; reaction DAR 5:1, pH 8, final DAR 3.36; MC-DM1 on cysteine thiols of reduced disulfide bonds, positions not given) VH: QVQLQQSGPGLVKPSQTLSLTCAISGDSVSSNSAAWNWIRQSPSRGLEWLGRTYYRSKWYNDYAVSVKSRITINPDTSKNQFSLQLNSVTPEDTAVYYCARTGYSSSWVVNFDYWGQGTLVTVSS VL: QPVLTQSPSASGTPGQRVTISCSGSSSNIGSNYVYWYQQLPGTAPKLLIYKNNQRPSGVPDRFSGSKSGTAASLAISGLQSEDEADYYCAAWDDSLRGYVFGTGTKLTVLG",% Binding,HAAH catalytic domain [1],89.5%
"SNS622-DM1C1 (antibody, V domains shown, MC-DM1 on cysteine thiols of reduced disulfide bonds, positions not given; reaction DAR 10:1, pH 7, final DAR 5.08; MC-DM1 on cysteine thiols of reduced disulfide bonds, positions not given) VH: QVQLQQSGPGLVKPSQTLSLTCAISGDSVSSNSAAWNWIRQSPSRGLEWLGRTYYRSKWYNDYAVSVKSRITINPDTSKNQFSLQLNSVTPEDTAVYYCARTGYSSSWVVNFDYWGQGTLVTVSS VL: QPVLTQSPSASGTPGQRVTISCSGSSSNIGSNYVYWYQQLPGTAPKLLIYKNNQRPSGVPDRFSGSKSGTAASLAISGLQSEDEADYYCAAWDDSLRGYVFGTGTKLTVLG",% Binding,HAAH catalytic domain [1],11.7%
"SNS622-DM1A1 (antibody, V domains shown, MC-DM1 on cysteine thiols of reduced disulfide bonds, positions not given; reaction DAR 2.5:1, pH 7, final DAR 2.00; MC-DM1 on cysteine thiols of reduced disulfide bonds, positions not given) VH: QVQLQQSGPGLVKPSQTLSLTCAISGDSVSSNSAAWNWIRQSPSRGLEWLGRTYYRSKWYNDYAVSVKSRITINPDTSKNQFSLQLNSVTPEDTAVYYCARTGYSSSWVVNFDYWGQGTLVTVSS VL: QPVLTQSPSASGTPGQRVTISCSGSSSNIGSNYVYWYQQLPGTAPKLLIYKNNQRPSGVPDRFSGSKSGTAASLAISGLQSEDEADYYCAAWDDSLRGYVFGTGTKLTVLG",% Binding,HAAH catalytic domain [1],75.1%
